Data taken from patent US20230295335A1 (published 2023).

T1: full length human EpCAM on cells (human, UniProt P16422 24-314)
T1 construct: the cell line is named under assay; also called EpCAM on DiFi, HPAF-II and A549 tumor cells; CHO-S cells transfected with full length human EpCAM
T1 sequence: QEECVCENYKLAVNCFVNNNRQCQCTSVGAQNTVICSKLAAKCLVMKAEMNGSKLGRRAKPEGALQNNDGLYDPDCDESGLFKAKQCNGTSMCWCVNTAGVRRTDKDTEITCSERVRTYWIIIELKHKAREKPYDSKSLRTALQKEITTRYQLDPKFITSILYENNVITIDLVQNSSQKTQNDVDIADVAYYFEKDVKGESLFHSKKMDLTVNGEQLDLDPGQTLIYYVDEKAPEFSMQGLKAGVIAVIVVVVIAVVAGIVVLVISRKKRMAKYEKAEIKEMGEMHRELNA

T2: full length mouse EpCAM on CHO-S cells (mouse, UniProt Q99JW5 24-315)
T2 sequence: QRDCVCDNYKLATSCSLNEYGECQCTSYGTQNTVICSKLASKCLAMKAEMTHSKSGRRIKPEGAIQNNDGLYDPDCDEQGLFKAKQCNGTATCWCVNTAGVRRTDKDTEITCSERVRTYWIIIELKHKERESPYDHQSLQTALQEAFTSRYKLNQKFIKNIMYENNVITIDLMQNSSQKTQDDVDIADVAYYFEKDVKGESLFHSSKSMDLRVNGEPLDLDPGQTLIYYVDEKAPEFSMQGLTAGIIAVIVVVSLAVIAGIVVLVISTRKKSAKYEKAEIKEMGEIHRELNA

T3: full length cynomolgus monkey EpCAM on CHO-S cells (cynomolgus monkey, UniProt Q1WER1 24-314 (rhesus entry))
T3 sequence: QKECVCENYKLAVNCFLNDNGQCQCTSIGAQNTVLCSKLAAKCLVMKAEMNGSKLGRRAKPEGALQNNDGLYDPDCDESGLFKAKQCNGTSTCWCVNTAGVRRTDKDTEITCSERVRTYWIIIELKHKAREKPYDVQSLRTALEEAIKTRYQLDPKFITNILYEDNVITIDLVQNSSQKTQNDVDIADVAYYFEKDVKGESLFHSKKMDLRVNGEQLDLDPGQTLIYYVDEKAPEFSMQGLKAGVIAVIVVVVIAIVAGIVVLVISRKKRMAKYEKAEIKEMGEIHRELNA


Experiments:
[1] = biological target: T1, full length human EpCAM on cells; experiment: flow cytometry on DiFi, HPAF-II and A549 tumor cells
Protocol: Binding to the EpCAM-expressing human tumor cell lines DiFi, HPAF-II and A549 by bivalent EpCAM antibodies or bispecific antibodies carrying one EpCAM-binding arm was analyzed by flow cytometry. […] Next, cells were washed once (A-D) or twice (E) in FACS buffer, re-suspended in 100 μL FACS buffer and analyzed on a BD LSRFortessa FACS (BD Biosciences, USA), Celesta (BD Biosciences, USA) or iQue (Sartorius, Germany). Binding curves were analyzed using non-linear regression (sigmoidal dose-response with variable slope) using GraphPad Prism V7.02 software (GraphPad Software, San Diego, CA, USA).

[2] = biological target: T2, full length mouse EpCAM on CHO-S cells; experiment: flow cytometry on CHO-S cells transfected with mouse EpCAM
Protocol: (§1) Binding of EpCAM antibodies to CHO-S cells transiently transfected with full length human, cynomolgus monkey or mouse EpCAM was analyzed by flow cytometry. […] Cells were washed twice in FACS buffer, re-suspended in 20 μL FACS buffer supplemented with TO-PRO™-3 Iodide (diluted 1:20000; Invitrogen, cat. no. T3605) and analyzed on an iQue screener (Intellicyt Corporation, USA). Binding curves were analyzed by non-linear regression (sigmoidal dose-response with variable slope) using GraphPad Prism V8.4.1 software (GraphPad Software, San Diego, CA, USA).

[3] = biological target: T3, full length cynomolgus monkey EpCAM on …; experiment: flow cytometry on CHO-S cells transfected with cynomolgus monkey EpCAM
Protocol: as §1

[4] = biological target: T1, full length human EpCAM on cells; experiment: flow cytometry on CHO-S cells transfected with human EpCAM
Protocol: as §1

Binder | binding result [1] | binding result [2] | binding result [3] | binding result [4]
IgG1-b12-FEAL (antibody, V domains shown, also called negative control antibody) VH: QVQLVQSGAEVKKPGASVKVSCQASGYRFSNFVIHWVRQAPGQRFEWMGWINPYNGNKEFSAKFQDRVTFTADTSANTAYMELRSLRSADTAVYYCARVGPYSWDDSPQDNYYMDVWGKGTTVIVSS VL: EIVLTQSPGTLSLSPGERATFSCRSSHSIRSRRVAWYQHKPGQAPRLVIHGVSNRASGISDRFSGSGSGTDFTLTITRVEPEDFALYYCQVYGASSYTFGQGTKLERKR | no binding (tested: up to 50 µg/mL) |  |  | 
bsIgG1-b12-FEAL/EpCAM-323-A3-FEAR (bispecific antibody) heavy 1: QVQLVQSGAEVKKPGASVKVSCQASGYRFSNFVIHWVRQAPGQRFEWMGWINPYNGNKEFSAKFQDRVTFTADTSANTAYMELRSLRSADTAVYYCARVGPYSWDDSPQDNYYMDVWGKGTTVIVSSASTKGPSVFPLAPSSKSTSGGTAALGCLVKDYFPEPVTVSWNSGALTSGVHTFPAVLQSSGLYSLSSVVTVPSSSLGTQTYICNVNHKPSNTKVDKRVEPKSCDKTHTCPPCPAPEFEGGPSVFLFPPKPKDTLMISRTPEVTCVVVAVSHEDPEVKFNWYVDGVEVHNAKTKPREEQYNSTYRVVSVLTVLHQDWLNGKEYKCKVSNKALPAPIEKTISKAKGQPREPQVYTLPPSREEMTKNQVSLTCLVKGFYPSDIAVEWESNGQPENNYKTTPPVLDSDGSFLLYSKLTVDKSRWQQGNVFSCSVMHEALHNHYTQKSLSLSPG light 1: EIVLTQSPGTLSLSPGERATFSCRSSHSIRSRRVAWYQHKPGQAPRLVIHGVSNRASGISDRFSGSGSGTDFTLTITRVEPEDFALYYCQVYGASSYTFGQGTKLERKRTVAAPSVFIFPPSDEQLKSGTASVVCLLNNFYPREAKVQWKVDNALQSGNSQESVTEQDSKDSTYSLSSTLTLSKADYEKHKVYACEVTHQGLSSPVTKSFNRGEC heavy 2: QIQLVQSGPELKKPGETVKISCKASGYTFTNYGMNWVRQASGEGLKWMGWINTYTGEPTYGEDFKGRFAFSLETSASTAYLQINNLKNEDTATYFCARFGNYVDYWGQGTTLTVSSASTKGPSVFPLAPSSKSTSGGTAALGCLVKDYFPEPVTVSWNSGALTSGVHTFPAVLQSSGLYSLSSVVTVPSSSLGTQTYICNVNHKPSNTKVDKRVEPKSCDKTHTCPPCPAPEFEGGPSVFLFPPKPKDTLMISRTPEVTCVVVAVSHEDPEVKFNWYVDGVEVHNAKTKPREEQYNSTYRVVSVLTVLHQDWLNGKEYKCKVSNKALPAPIEKTISKAKGQPREPQVYTLPPSREEMTKNQVSLTCLVKGFYPSDIAVEWESNGQPENNYKTTPPVLDSDGSFFLYSRLTVDKSRWQQGNVFSCSVMHEALHNHYTQKSLSLSPG light 2: DIVMTQAAFSNPVTLGTSASISCRSSKNLLHSNGITYLYWYLQKPGQSPHLLIYQMSNLASGVPDRFSSSGSGTDFTLRISRVEAEDVGVYYCAQNLEIPRTFGGGTKLEIKRTVAAPSVFIFPPSDEQLKSGTASVVCLLNNFYPREAKVQWKVDNALQSGNSQESVTEQDSKDSTYSLSSTLTLSKADYEKHKVYACEVTHQGLSSPVTKSFNRGEC |  | binds | binds | binds
